Results taken from patent US20230183322A1 (PEKING UNIVERSITY, published 2023).

Assays:
[1] = target: S protein of the novel coronavirus SARS-CoV-2 (SARS-CoV-2, UniProt P0DTC2 14-1273); test: cell-based or functional assay
[2] = target: biotin-labeled SARS-COV-2 RBD domain (SARS-CoV-2, UniProt P0DTC2 319-541); test: SPR, Biacore T200, biotin-RBD on SA chip, antibody as analyte

B1: ABU-360 (antibody, V domains shown)
VH: EVQLVESGGGLVQPGGSLRLSCAASEFIVSRNYMSWVRQAPGKGLEWVSVIYSGGSTFYADSVKGRFTISRDNSKNTLYLQMNSLRAEDTGVYYCARDRGLVSDYWGQGTLVTVSS
VL: DIQMTQSPSSLSASVGDRVTITCQASQDINKYLNWYQQKPGKAPKLLIFDASHLETGVPSRFSASGSGTDFTFTISSLQPEDIATYYCHQYDNLPRTFGQGTRLEIK
IC50 for neutralizing SARS-CoV-2 pseudovirus (Huh-7 cells, luciferase) [1]: < 0.1 µg/mL
Kd [2]: < 1 nM

B2: ABU-379 (antibody, V domains shown)
VH: EVQLVESGGGLVQPGGSLRLSCAASGFIVSSNYMSWVRQAPGKGLEWVSVIYSGGSTYYADSVKGRFTISRDNSKNTLYLRMNSLRAEDTAVYYCARAPYCSSRSCETWGQGTLVTVSS
VL: DIQMTQSPSSLSASVGDRVTITCQASQDIRNYLNWYQQKPGKAPNLLIYDASNLETGVPSRFSGSGSGTDFTFTINSLQPEDIATYYCQQYDNLPITFGQGTRLEIK
IC50 for neutralizing SARS-CoV-2 pseudovirus (Huh-7 cells, luciferase) [1]: < 0.5 µg/mL
Kd [2]: < 10 nM

B3: ABU-376 (antibody, V domains shown)
VH: EVQLVESGGGLVQPGGSLRLSCAASGLTVSSNYMSWVRQAPGKGLNWVSVIYSGGSTYYADSVKGRFTISRDNSKNTLYLEMNSLKPEDTAVYYCARLPYGMDVWGQGTTVTVSS
VL: DIQMTQSPSSLSASVGDRVTITCQASQDIRNYLNWYQQKPGKAPKLLIHDASNLETGVPSRFIGSGSGTDFTFTISSLQPEDIATYYCQQYDNLPITFGQGTRLEIK
IC50 for neutralizing SARS-CoV-2 pseudovirus (Huh-7 cells, luciferase) [1]: < 0.1 µg/mL
Kd [2]: < 10 nM

B4: ABU-380 (antibody, V domains shown)
VH: EVQLVESGGGLVQPGGSLRLSCAASGFTVSSNYMSWVRQAPGKGLEWVSLIYPGGSTYYADSVEGRFTISRDNSKNTLYLQMNSLRAEDTAVYYCAREIRVITPVEVWGQGTLVTVSS
VL: DIQMTQSPSSLSASVGDRVTITCQASQDINKYLNWYQLKPGKAPNLLIYDASNLETGVPSRFSGSGSGTDFTFTISSLQPEDIATYYCHQYDNLPRTFGQGTKVEIK
IC50 for neutralizing SARS-CoV-2 pseudovirus (Huh-7 cells, luciferase) [1]: < 0.1 µg/mL
Kd [2]: < 1 nM

B5: ABU-391 (antibody, V domains shown)
VH: EVQLVESGGGLIQPGGSLRLSCAASGFIVSSNYMSWVRQAPGKGLEWVSVIYSGGSTYYADSVKGRFTISRDNSKNTLYLQMNSLRAEDTAVYYCARDYGDYYFDYWGQGTLVTVSS
VL: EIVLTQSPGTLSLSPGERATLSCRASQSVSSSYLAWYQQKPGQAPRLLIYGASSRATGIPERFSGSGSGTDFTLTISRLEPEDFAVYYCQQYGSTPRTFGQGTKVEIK
IC50 for neutralizing SARS-CoV-2 pseudovirus (Huh-7 cells, luciferase) [1]: < 1 µg/mL
Kd [2]: < 20 nM

B6: ABU-392 (antibody, V domains shown)
VH: EVQLVESGGGLIQPGGSLRLSCAASEFIVSRNYMSWVRQAPGKGLEWVSVIYSGGSTYYADSVKGRFTISRDNSKNTLNLQMNSLRAEDTAVYYCARDYGDYYFDYWGQGTLVTVSS
VL: EIVLTQSPGTLSLSPGERATLSCRASQGVSSFLAWYQQKPGQAPRLLIHGASSRATGIPDRFSGSGSGTDFTLTITRLEPEDFAVYYCQQYGSSPRTFGQGTKVEIK
IC50 for neutralizing SARS-CoV-2 pseudovirus (Huh-7 cells, luciferase) [1]: < 0.1 µg/mL
Kd [2]: < 10 nM

B7: ABU-395 (antibody, V domains shown)
VH: EVQVVESGGGLVQPGGSLRLSCAASGFTVSFNYMSWVRQAPGKGLEWVSVIYPGGSTYYADSVKGRFTISRHNSKNTVYLQMNSLRAEDTAVYYCARDYGDFYFDYWGQGTLVTVSS
VL: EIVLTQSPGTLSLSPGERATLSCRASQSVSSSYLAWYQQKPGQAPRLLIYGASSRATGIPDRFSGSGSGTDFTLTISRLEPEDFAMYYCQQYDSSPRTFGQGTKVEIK
IC50 for neutralizing SARS-CoV-2 pseudovirus (Huh-7 cells, luciferase) [1]: < 0.1 µg/mL
Kd [2]: < 10 nM

B8: ABU-381 (antibody, V domains shown)
VH: EVQLVESGGGLVQPGGSLRLSCAVSGFIVSRNYMTWVRQAPGKGLEWVSLIYSGGSTFYTNSVKGRFTISRDNSKNTLYLQMDSLRAEDTAVYYCARGPYPRFDYWGQGTLVTVSS
VL: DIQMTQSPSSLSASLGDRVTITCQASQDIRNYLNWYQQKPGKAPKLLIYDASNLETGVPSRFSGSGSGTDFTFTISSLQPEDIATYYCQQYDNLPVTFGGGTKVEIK
IC50 for neutralizing SARS-CoV-2 pseudovirus (Huh-7 cells, luciferase) [1]: < 0.1 µg/mL
Kd [2]: < 1 nM

B9: ABU-372 (antibody, V domains shown)
VH: EVQLVESGGGLVQPGGSLRLSCAASGVTVSRNYMSWVRQAPGKGLEWVSVIYSGGSTDYADSVKGRFTISRHNSKNTLYLQMNSLRVEDTAVYYCARDGYGMDVWGQGTTVTVSS
VL: DIQLTQSPSFLSASVGDRVTITCRASQGISSYLAWYQQKPGKAPNLLIYAASTLQSGVPSRFSGSGSGTEFTLTISSLQPEDFATYYCQQLNSYPPAFGPGTKVDIK
IC50 for neutralizing SARS-CoV-2 pseudovirus (Huh-7 cells, luciferase) [1]: < 0.5 µg/mL
Kd [2]: < 20 nM

B10: ABU-359 (antibody, V domains shown)
VH: EVQLVESGGGLVQPGGSLRLSCAASGFIVSSNYMTWVRQAPGKGLEWVSVIYSGGSTFYADSVKGRFTISRHNSKNTLFLQMNSLRAEDTAVYYCARDAQNYGMDVWGQGTTVTVSS
VL: DIQMTQSPSSLSASVGDRVTITCRASQSISSYLNWYQQKPGKAPKLLIFAASSLQTGAPSRFSGSGSGTDFTLTISSLQPEDFATYYCQQSYSTPPYTFGQGTKLEIK
IC50 for neutralizing SARS-CoV-2 pseudovirus (Huh-7 cells, luciferase) [1]: < 0.1 µg/mL
Kd [2]: < 10 nM

B11: ABU-365 (antibody, V domains shown)
VH: EVQLVESGGGLIQPGGSLRLSCAASGVTVSSNYMSWVRQAPGKGLEWVSLIYSGGSTYYADSVKGRFTISRDNSKNTLYLQMNSLRAEDTAVYYCARPIVGARSGMDVWGQGTTVTVSS
VL: DIQMTQSPSSLSASVGDRVTITCQASQDINNYLNWYQQKPGKAPKLLIYDASNLETGVPSRFSGSGSGTDFTFIISSLQPEDIATYYCQQHDNLPVTFGGGTKVEIK
IC50 for neutralizing SARS-CoV-2 pseudovirus (Huh-7 cells, luciferase) [1]: < 0.1 µg/mL
Kd [2]: < 10 nM

B12: ABU-375 (antibody, V domains shown)
VH: EVQLVESGGGLVQPGGSLRLSCAASGLTVSSNYMSWVRQAPGKGLEWVSVIYSGGSTFYADSVKGRFTISRDNSKNTLYLQMNSVRAEDTAVYYCARLPYGMDVWGQGTTVTVSS
VL: DIQMTQSPSSLSASVGDRVTITCQASQDVSKYLNWYQQKPGKAPKLLIHDASNLQTGVPSRFSGGGSGTDFTFTISSLQPEDIATYYCQQYDNLPVTFGGGTKVEIK
IC50 for neutralizing SARS-CoV-2 pseudovirus (Huh-7 cells, luciferase) [1]: < 0.1 µg/mL
Kd [2]: < 10 nM

B13: ABU-358 (antibody, V domains shown)
VH: EVQLVESGGGLIQPGGSLRLSCAASGLTVSSNYMNWVRQAPGKGLEWVSVIYSGGSTYYADSVKGRFTISRDNSKNMVYLQMNSLRAEDTAVYYCARDLVVYGMDVWGQGTTVIVSS
VL: DIQLTQSPSSLSASVGDRVTITCRASQGISSYLAWYQQKPGKAPKLLIYAASTLQSGVPSRFSGSGSGTDFTLTISSLQPEDVATYYCQQLNSNPPITFGPGTKVDIK
IC50 for neutralizing SARS-CoV-2 pseudovirus (Huh-7 cells, luciferase) [1]: < 0.1 µg/mL
Kd [2]: < 10 nM

B14: ABU-361 (antibody, V domains shown)
VH: EVQLVESGGGLIQPGGSLRLSCAASGLTVSSNYMSWVRQAPGKGLEWVSVIYSGGSTYYADSVKGRFTISRDNSTNTLYLQMNSLRAEDTAVYYCARDLDYYGMDVWGQGTTVTVSS
VL: DIQLTQSPSSLSASVGDRVTITCRASQGISSYLAWYQQKPGKAPNLLIYAASTLQSGVPSRFSGSGSGTDFTLTISSLQPEDFATYYCQHLNSYPPITFGQGTRLEIK
IC50 for neutralizing SARS-CoV-2 pseudovirus (Huh-7 cells, luciferase) [1]: < 0.5 µg/mL
Kd [2]: < 20 nM

B15: ABU-368 (antibody, V domains shown)
VH: EVQLVESGGGLIQPGGSLRLSCAASGFTVSSNYMSWVRQAPGKGLEWVSVIYSGGSTFYADSVKGRFTISRDNSKNTLYLQMNSLRAEDTAVYYCARDLGAYGMDVWGQGTTVTVSS
VL: DIQLTQSPSFLSASVGDRVTITCRASQGISSYLAWYQQKPGKAPKLLIYAASTLQSGVPSRFSGSGSGTEFTLTISSLQPEDFATYYCQQLNSDLYTFGQGTKLEIK
IC50 for neutralizing SARS-CoV-2 pseudovirus (Huh-7 cells, luciferase) [1]: < 0.5 µg/mL
Kd [2]: < 20 nM

B16: ABU-367 (antibody, V domains shown)
VH: EVQLVESGGGLIQPGGSLRLSCAASGIIVSSNYMTWVRQAPGKGLEWVSVIYSGGSTFYADSVKGRFTISRDNSKNTLYLQMSSLRAEDTAVYYCARDLGPYGMDVWGQGTTVTVSS
VL: DIQLTQSPSFLSASVGDRVTITCRASQGISSDLAWYQQKPGKAPNLLIYAASTLQSGVPSRFSGSGSGTEFTLTISSLQPEDFATYYCQQLNSDLYTFGQGTKLEIK
IC50 for neutralizing SARS-CoV-2 pseudovirus (Huh-7 cells, luciferase) [1]: < 0.1 µg/mL
Kd [2]: < 1 nM

B17: ABU-373 (antibody, V domains shown)
VH: EVQLVESGGGLIQPGGSLRLSCAASGITVSSNYMSWVRQAPGKGLEWVSVIYSGGSTYYADSVKGRFTISRDNSKNTLYLQMNSLRAEDTAVYYCARGGAYYYGMDVWGQGTTVTVSS
VL: DIQLTQSPSFLSASVGDRVTITCRASQGISSYLAWYQQKPGKAPKLLIYAASTLQSGVPSRFSGSGSGTEFTLTISSLQPEDFATYYCQQLNTYPPFGFGPGTKVDIK
IC50 for neutralizing SARS-CoV-2 pseudovirus (Huh-7 cells, luciferase) [1]: < 0.5 µg/mL
Kd [2]: < 10 nM

B18: ABU-369 (antibody, V domains shown)
VH: EVQLVESGGGLIQPGGSLRLSCAASGLTVSSNYMSWVRQAPGKGLEWVSVIYSGGSTFYADSVKGRFTISRDNSKNTLYLQMNSLRAEDTAVYYCARDLYYYGMDVWGQGTTVTVSS
VL: AIQLTQSPSSLSASVGDRVTITCRASQGISSYLAWYQQKPGKAPKLLIFAASTLQSGVPSRFSGSGSGTDFTLTISSLQPEDFATYYCQQLDSYPLFGGGTKVEIK
IC50 for neutralizing SARS-CoV-2 pseudovirus (Huh-7 cells, luciferase) [1]: < 0.1 µg/mL
Kd [2]: < 10 nM

B19: ABU-362 (antibody, V domains shown)
VH: EVQLVESGGGLVQPGGSLRLSCAASGFTVSRNYMSWVRQAPGKGLEWVSVIYSGGTTHYADSVKGRFTISRHNSKNTLYLQMNSLRAEDTAVYYCARDLVVYGMDVWGQGTTVTVSS
VL: DIQLTQSPSFLSASVGDRVTITCRASQGISSYLAWYQQKPGKAPKLLIYAASTLQSGVPSSFSGSGSGTEFTLTISSLQPEDFATYYCQQLNSYPLTFGGGTKVEIK
IC50 for neutralizing SARS-CoV-2 pseudovirus (Huh-7 cells, luciferase) [1]: < 0.5 µg/mL
Kd [2]: < 20 nM

B20: ABU-386 (antibody, V domains shown)
VH: EVQLVESGGGLVQPGGSLRLSCAASGVTVSSNYMSWVRQAPGKGLEWVSAVYSGGSTYYADSVKGRFTISRHNSKNTLYLQMKSLRPEDTAIYYCARLINHYYDSSGDGGAFDIWGQGTMVTVSS
VL: QSALTQPASVSGSPGQSITISCTGTSSDVGSYNLVSWYQQRPGKAPKLILYEVTKRPSGVSNRFSGSKSGNTASLAISGLQAEDEADYYCCSYAGSSTWVFGGGTKLTVL
IC50 for neutralizing SARS-CoV-2 pseudovirus (Huh-7 cells, luciferase) [1]: < 0.1 µg/mL
Kd [2]: < 10 nM

B21: ABU-377 (antibody, V domains shown)
VH: QVQLVESGGGLVQPGGSLRLSCAASGLIVSSNYMSWVRQAPGEGLEWVSVIYSGGSTYYADSVKGRFTISRDTSKNTLYLQMNSLRAEDTAVYYCARARIYTYGPDYWGQGTLVTVSS
VL: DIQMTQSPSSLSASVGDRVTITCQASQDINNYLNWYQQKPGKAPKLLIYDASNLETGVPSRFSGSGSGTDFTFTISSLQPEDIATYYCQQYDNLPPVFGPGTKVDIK
IC50 for neutralizing SARS-CoV-2 pseudovirus (Huh-7 cells, luciferase) [1]: < 0.5 µg/mL
Kd [2]: < 10 nM
